Data taken from patent US20030148956A1 (PROCTER AND GAMBLE, published 2003).
Ends that are not written are not given here.

T1: corticotropin releasing factor 2 receptor
T1 sequence (Q13324 whole entry, species assumed, looked up): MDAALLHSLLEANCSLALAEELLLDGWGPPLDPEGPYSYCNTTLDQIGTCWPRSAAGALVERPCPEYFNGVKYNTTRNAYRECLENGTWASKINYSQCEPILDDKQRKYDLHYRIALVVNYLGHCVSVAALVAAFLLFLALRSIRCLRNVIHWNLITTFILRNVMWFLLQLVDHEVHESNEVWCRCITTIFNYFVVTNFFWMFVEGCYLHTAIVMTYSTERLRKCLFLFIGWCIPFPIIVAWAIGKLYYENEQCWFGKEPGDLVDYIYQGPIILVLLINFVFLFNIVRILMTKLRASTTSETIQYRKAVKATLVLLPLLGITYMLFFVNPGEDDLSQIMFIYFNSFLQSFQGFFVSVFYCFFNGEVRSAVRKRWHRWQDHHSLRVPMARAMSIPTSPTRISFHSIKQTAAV


Columns and labels:
[1] = biological target: T1, corticotropin releasing factor 2 …; test: cell-based or functional assay
[2] = biological target: corticotropin releasing factor 1 receptor; test: cell-based or functional assay

Row | Binder | CRF2R EC50 [1] [µM] | CRF2R Emax % [1] [%] | CRF1R EC50 [2] [µM] | CRF1R Emax % [2] [%]
1 | ZGPPISIDVPFQLLRKVIEIEKQEKEKQQAANNARLLARI (C-terminal amide) [SEQ ID NO 383] | 0.00931 | 96 | 1 | 55
2 | ZGPPISIDVPFQLLRKVIEIEKQEKEKQQAANNARLLDTI (C-terminal amide) [SEQ ID NO 382] | 0.0395 | 100 | 1 | 8
3 | IVLSLDVVIGLLQILLEQARARAAREQATTNARILARV-NH2 [SEQ ID NO 214] | 0.0743 | 60 | 0.1 | 4
4 | ZGPPISIDLPHQLLRKMIEIEKQEKEKQQAANNRLLLDTI (C-terminal amide) [SEQ ID NO 212] | 0.0213 | 100 | 0.445 | 100
5 | ZGPPISIDLPYWLLRKMIEIEKQEKEKQQAANNRLLLDTI (C-terminal amide) [SEQ ID NO 215] | 0.004 | 100 | 0.188 | 100
6 | DNPSLSIDVPFFLLRTLLELEKTQSQRERAEQNARIFARV-NH2 [SEQ ID NO 386] | 0.0087 | 96 | 1 | 78.2

Further lines, results first:

Row | CRF2R EC50 [1] [µM] | CRF2R Emax % [1] [%] | CRF1R EC50 [2] [µM] | CRF1R Emax % [2] [%] | Binder
7 | 0.0706 | 94 | 1 | 8 | ZGPPISIDVPIYLLRKVIEIEKQEKEKQQAANNARLLARI (C-terminal amide) [SEQ ID NO 379]
8 | 0.0127 | 99 | 1 | 27 | ZGPPISIDVPLQLLRKVIEIEKQEKEKQQAANNARLLARI (C-terminal amide) [SEQ ID NO 381]
9 | 0.019 | 100 | 1 | 16 | ZGPPISIDVPLQLLRKVIEIEKQEKEKQQAANNARLLDTI (C-terminal amide) [SEQ ID NO 380]
10 | 0.0071 | 97.3 | 1 | 70.3 | DNPSLSIDVPLLLLRTLLELEKTQSQRERAEQNARIFARV-NH2 [SEQ ID NO 384]
11 | 0.0103 | 100 | 1 | 46 | DNPSLSIDVPLFLLRTLLELEKTQSQRERAEQNARIFARV-NH2 [SEQ ID NO 385]
12 | 0.0223 | 99 | 1 | 76 | ZGPPISIDLPQWLLRKMIEIEKQEKEKQQAANNRLLLDTI (C-terminal amide) [SEQ ID NO 213]
13 | 0.0047 | 95 | 0.0947 | 100 | ZGPPISIDLPFWLLRKMIEIEKQEKEKQQAANNRLLLDTI (C-terminal amide) [SEQ ID NO 217]
14 | 0.0099 | 90 | 0.0498 | 98 | ZGPPISIDLPWWLLRKMIEIEKQEKEKQQAANNRLLLDTI (C-terminal amide) [SEQ ID NO 216]
15 | 0.0179 | 100 | 1 | 50.1 | DNPSLSIDVPLYLLRTLLELEKTQSQRERAEQNARIFARV-NH2 [SEQ ID NO 387]
